US20240034786A1 (WUXI BIOLOGICS IRELAND, published 2024)

Legend:
[1] = target: T1, WBP319-hPro2.ECD.His (R&D) (human, UniProt P12830 155-709); assay: capture ELISA, antigen held by anti-His antibody
T1 construct: extracellular domain; Bought protein; also called human E-Cadherin.ECD.His; Human E-Cadherin
T1 sequence (looked up): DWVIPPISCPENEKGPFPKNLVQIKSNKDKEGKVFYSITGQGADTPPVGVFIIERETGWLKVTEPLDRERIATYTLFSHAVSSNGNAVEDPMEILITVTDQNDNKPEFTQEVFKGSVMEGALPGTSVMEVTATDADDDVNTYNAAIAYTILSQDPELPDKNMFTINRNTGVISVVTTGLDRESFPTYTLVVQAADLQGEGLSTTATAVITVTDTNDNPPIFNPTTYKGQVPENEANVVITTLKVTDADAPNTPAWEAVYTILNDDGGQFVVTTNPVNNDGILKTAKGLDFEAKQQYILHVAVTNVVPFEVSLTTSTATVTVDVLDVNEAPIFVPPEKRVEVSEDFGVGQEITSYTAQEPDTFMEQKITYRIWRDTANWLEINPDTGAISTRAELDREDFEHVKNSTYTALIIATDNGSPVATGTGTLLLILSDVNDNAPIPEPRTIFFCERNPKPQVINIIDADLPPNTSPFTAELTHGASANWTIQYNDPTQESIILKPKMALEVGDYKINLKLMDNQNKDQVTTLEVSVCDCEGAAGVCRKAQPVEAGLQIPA
Protocol: The binding of the antibodies to human E-Cadherin.ECD.His (R&D-8505-NC-050, WBP319-hPro2.ECD.His (R&D)) and human N-Cadherin.ECD.His (R&D-1388-NC-050, WBP319-hPro3.ECD.hFcHis (R&D)) were tested by a captured protein binding ELISA. 96-well high protein binding ELISA plates (Nunc MaxiSorp, ThermoFisher, Cat #: 442404) were coated overnight at 4° C. with 1 μg/mL capture antibody (THETM His Tag mAb, GenScript, Cat #: A00186) in Carbonate-bicarbonate buffer (20 mM Na2CO3, 180 mM NaHCO3, pH=9.2). All wells were washed three time with 300 μL per well of PBS/0.5‰ Tween-20 (v/v) and all the following wash steps in the assay were performed the same. The wells were then blocked for one hour with 3% milk (Shanghai Dingguo-DH220)/1×PBS (Ca+/Mg+) (Gibco, #14040-117) and washed three times, followed by binding of 1 μg/mL antigens in 3% milk/1×PBS (Ca+/Mg+) for 1 hour at room temperature and three washes afterwards. […]
For the binding detection, 100 μL Tetramethylbenzidine (TMB) Substrate solution (Invitrogen, Cat #: 002023) was added to all wells for 10 minutes before stopping the reaction with 100 μL 2M HCl. The extent of the testing Abs binding to WBP319-hPro2.ECD.His (R&D)) and WBP319-hPro3.ECD.hFcHis (R&D) were determined by measuring the OD450 absorbance using the SpectraMax® M5e microplate reader. […]

[2] = target: T2, Human P-cadherin on cells (human, UniProt P22223 108-829); assay: FACS on HCT-116 cells, antibody kept in human serum at 37 C, Day 14
T2 construct: whole, on cells; Endogenous P-cadherin on tumour cell lines; also called hPro1
T2 sequence (P22223 108-829): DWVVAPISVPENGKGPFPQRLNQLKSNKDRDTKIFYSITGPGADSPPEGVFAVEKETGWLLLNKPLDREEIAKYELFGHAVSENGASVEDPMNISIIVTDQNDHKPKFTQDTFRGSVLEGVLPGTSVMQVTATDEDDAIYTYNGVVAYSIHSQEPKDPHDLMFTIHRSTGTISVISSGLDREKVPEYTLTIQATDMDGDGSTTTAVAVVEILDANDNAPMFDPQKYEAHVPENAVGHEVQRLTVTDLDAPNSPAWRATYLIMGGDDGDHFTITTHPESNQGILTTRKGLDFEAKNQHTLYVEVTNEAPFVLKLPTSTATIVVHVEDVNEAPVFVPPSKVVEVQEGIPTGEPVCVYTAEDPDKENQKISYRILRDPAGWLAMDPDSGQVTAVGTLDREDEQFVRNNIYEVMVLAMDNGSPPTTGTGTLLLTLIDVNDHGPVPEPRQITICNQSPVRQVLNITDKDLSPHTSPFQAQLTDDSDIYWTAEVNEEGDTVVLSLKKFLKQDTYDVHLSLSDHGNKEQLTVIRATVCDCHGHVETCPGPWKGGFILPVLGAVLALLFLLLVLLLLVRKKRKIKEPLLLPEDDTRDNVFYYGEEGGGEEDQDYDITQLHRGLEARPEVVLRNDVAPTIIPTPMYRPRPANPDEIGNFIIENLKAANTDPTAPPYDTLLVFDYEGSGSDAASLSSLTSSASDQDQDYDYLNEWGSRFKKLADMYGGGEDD
Protocol: (§1) The antibody stability in human serum was tested by FACS. Briefly, human serum was freshly isolated by centrifuging the fresh blood twice at 4000 rpm for 10 minutes. […] As a control, antibodies serum mix was frozen immediately without 37° C. incubation. For the FACS analysis, the samples from different time points were free-thawed simultaneously at 4° C. […] The cells were washed twice with 1% BSA/1×PBS (Ca+/Mg+). Alexa647 conjugated Goat anti-human IgG Fc (Jackson, #109-605-098) 1:500 diluted in 1% BSA/1×PBS (Ca+/Mg+) were added to the cells and incubated at 4° C. for 30 minutes. Cells were washed twice in the same buffer and the mean fluorescence (MFI) of stained cells was measured using a FACS Canto II cytometer (BD Biosciences) and analyzed by FlowJo. Wells containing no antibody or secondary antibody only were used to establish background fluorescence. Four-parameter non-linear regression analysis was used to obtain EC50 values for cell binding using GraphPad Prism6 software.

[3] = target: T2, Human P-cadherin on cells; assay: FACS on HCT-116 cells, antibody kept in human serum at 37 C, Day 4
Protocol: as §1

[4] = target: T2, Human P-cadherin on cells; assay: FACS on HCT-116 cells, antibody kept in human serum at 37 C, Day 0
Protocol: as §1

EC50 [1]: > 100 nM
EC50 [2]: 0.2 nM
EC50 [3]: 0.16 nM
EC50 [4]: 0.2 nM
B1: W3195-1.53.1-p1-uIgG1L (antibody)
heavy: not shown
light: SYELTQPPSVSVSPGQTAQITCSGDKLGDKFASWYQQKSGQSPVVVIYQDNKRPSGFPERFSGSNSGNTATLTISGTQAMDEADYYCQAWDSSIVVFGGGTKLTVLGQPKAAPSVTLFPPSSEELQANKATLVCLISDFYPGAVTVAWKADSSPVKAGVETTTPSKQSNNKYAASSYLSLTPEQWKSHRSYSCQVTHEGSTVEKTVAPTECS
notes: also called W3195-p1 antibody
